According to patent US20220112292A1 (ALETA BIOTHERAPEUTICS, published 2022):
Values belong to the binder of their own block, whether it stands above or below them.

Legend:
CLL-1 on U937 cells [1] = target: T1, CLL-1 on U937 cells (human, UniProt Q5QGZ9 1-265); assay: flow cytometry on U937 cells, clone lysate, anti-cMyc-PE (Table 3 summary)
T1 construct: whole, on cells; also called CLEC12A; Clec12A
T1 sequence: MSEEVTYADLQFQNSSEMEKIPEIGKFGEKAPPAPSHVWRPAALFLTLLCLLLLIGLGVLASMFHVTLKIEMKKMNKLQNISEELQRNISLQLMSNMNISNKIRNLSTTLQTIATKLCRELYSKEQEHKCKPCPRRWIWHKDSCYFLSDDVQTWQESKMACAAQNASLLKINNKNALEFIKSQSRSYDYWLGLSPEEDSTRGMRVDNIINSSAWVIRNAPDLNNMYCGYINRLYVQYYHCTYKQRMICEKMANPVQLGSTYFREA

[2] = target: T2, Clec12A-His (Sino Biological, 11896-H07H) (human, UniProt Q5QGZ9 65-265); assay: ELISA on plate coated with CLEC12a-His; unlabeled VHH at 10 ug/ml first, biotinylated VHH at 0.2 ug/ml second, streptavidin-HRP
T2 construct: Bought soluble protein; also called soluble CLEC12a-His; Sino Biological Clec12A
T2 chain: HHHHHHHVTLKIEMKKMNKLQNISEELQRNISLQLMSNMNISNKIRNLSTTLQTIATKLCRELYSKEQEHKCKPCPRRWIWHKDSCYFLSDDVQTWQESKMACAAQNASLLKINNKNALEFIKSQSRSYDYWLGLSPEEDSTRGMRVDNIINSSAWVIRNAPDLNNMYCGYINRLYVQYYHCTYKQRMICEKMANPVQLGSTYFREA
Method: ELISAs were used to determine if the VHH clones recognized distinct or similar epitopes. […] The plate was blocked with 0.3% nonfat milk in TBS (200 ul/well) for 1 hr at RT. The plates were washed 3× with 1×TBST (0.1 M Tris, 0.5 M NaCl and 0.05% Tween-20). The test anti-CLEC12a VHHs were added at 10 ug/ml horizontally across the plate, 100 ul per well and incubated for 1 h. Without washing, the test anti-CLEC12a biotinylated VHHs were added at 0.2 ug/ml vertically down the plate, 100 ul per well and incubate for 1 h. After being washed 3× with 1×TBST, HRP-conjugated streptavidin (Pierce #21130) at 1:2000 (100 ul/well) was added, followed by incubation at RT in the dark for 1 hr. For detection, 1-Step Ultra TMB-ELISA reagent (Thermo Fisher #34028) was added at 100 ul per well and read at 450 nm. […] The 1H1 VHH was distinct from these, and 2C2 was intermediate. Results are depicted in FIGS. 7A-7D.

CLL-1 on U937 cells [3] = target: T1, CLL-1 on U937 cells; assay: flow cytometry on U937 cells, 3x serial dilutions from 3 ug/ml, anti-His-PE
Method: (§1) U937 cell binding by VHH clones was assessed using varying doses to determine EC50s. Briefly, the method included: VHH clones (3 ug/ml as starting conc./test, with 3× serial dilutions) in FACS buffer were added to Fc blocked U937 or 293T-CLL1 cells (2.5×10\hat{ }5), the mixtures were incubated for 30 min at 4° C., then washed twice with FACS buffer by spinning at 500G for 2 min; anti-His-PE was added to cells, the mixture was incubated for 30 min at 4° C. and washed twice with FACS buffer by spinning at 500G for 2 min; 1% PFA (Paraformaldehyde) in PBS was added to cell pellet to fix the cells, followed by FACS analysis. VHH clones tested: 1B5: stock=1.6 mg/ml; 1H1: stock=1.9 mg/ml; 1G6: stock=1.1 mg/ml; 2F3: stock=1.45 mg/ml; 2F5: stock=0.5 mg/ml; 2H3: stock=2 mg/ml.

CLL-1 on U937 cells [4] = target: T1, CLL-1 on U937 cells; assay: flow cytometry on U937 cells, VHH in 3-fold dilutions, detected with a-His-PE; percent of cells positive
Method: as §1

CLL-1 on U937 cells [5] = target: T1, CLL-1 on U937 cells; assay: flow cytometry on U937 cells, VHH at 3 ug/ml, detected with a-His-PE; a-His-PE alone 1.1% and 5,576.5, unstained 0.6% and 5,793.5
Method: U937 cell binding by VHH clones was assessed. Briefly, the method included: U937 cells (2.5×10\hat{ }5) were Fc blocked (human Fc block, BD Cat. #BDB564220) for 10 min at room temperature, then washed once with FACS buffer (PBS+1% BSA+0.1% Sodium Azide) by spinning at 500G for 2 min; VHH clones (3 μg/ml as final conc) in FACS buffer were added to the cell pellets and incubated for 30 min at 4° C., then washed twice with FACS buffer by spinning at 500G for 2 min; anti-His-PE (R&D Systems, Cat. #IC050P) was added to cells; the mixture was incubated for 30 min at 4° C. and washed twice with FACS buffer by spinning at 500G for 2 min; 1% PFA (Paraformaldehyde) in PBS was added to cell pellet to fix the cells, followed by FACS analysis. VHH clones tested: 1B5: stock=1.6 mg/ml; 1H1: stock=1.9 mg/ml; 1G6: stock=1.1 mg/ml; 2F3: stock=1.45 mg/ml; 2F5: stock=0.5 mg/ml; 2H3: stock=2 mg/ml. As shown in FIGS. 2A-2C, binding of clones 1H1, 1G6, 2F5 and 2H3 to U937 cells was detected with anti-His-PE; very little binding of clones 1B5 and 2F3 to U937 cells could be detected by anti-His-PE.

CLL-1 on U937 cells [6] = target: T1, CLL-1 on U937 cells; assay: flow cytometry on U937 cells, % binding against ng/ml, detected with a-His-PE; EC50 of the fitted curve; the curve of 1H1 reaches about 70% at 3000 ng/ml without a plateau
Method: as §1

B2: VHH clone 1D2 (VHH)
VHH: QVQLQQSGGGLVQPGGSLRLSCAASGFAFDDYAMIWVRQGPGKGLEWVSSISWNGGGTYYAESIVGRFTVSRDNAKKMVYLQMNGLKSEDTAMYYCVKLVDSGWYSAYDYWGQGTQVTVSS
notes: Includes myc and His tags
% FACS positive (CLL-1 on U937 cells [1]): 14.6%

B3: VHH clone 1A10 (VHH)
VHH: QVQLQESGGGLVQVGESLRLSCVVSGDTRSINLMGWYRQAPGKQRELVAACASDGNTYYADSVKGRFTISRDNAEKTVYLQMNNLKPDDTAVYYCDANSRGNYYSGQGTLVTVSS
notes: Includes myc and His tags
% FACS positive (CLL-1 on U937 cells [1]): 84.9%
binding result [2]: binds

B4: VHH clone 1H1 (VHH)
VHH: QVQLQESGGGLVQPGGSLRLSCAASGFTFNSYAMTWVRQAPGKGLEWVSDINSGGGSTNYADSVKGRFTISRDNAKNTLYLQMNSLKPEDTAVYYCATELRGSDYYRGPIREYAYWGQGTLVTVSS
notes: includes myc and His tags; also called 2F4
EC50 (CLL-1 on U937 cells [3]): 81 nM
% FACS positive (CLL-1 on U937 cells [1]): 10.8%
% binding at 1.4 ng/ml (CLL-1 on U937 cells [4]): 0.6%
% binding at 4.1 ng/ml (CLL-1 on U937 cells [4]): 0.7%
% binding at 12.3 ng/ml (CLL-1 on U937 cells [4]): 0.7%
% binding at 37.0 ng/ml (CLL-1 on U937 cells [4]): 0.9%
% binding at 111.1 ng/ml (CLL-1 on U937 cells [4]): 2.1%
% binding at 333.3 ng/ml (CLL-1 on U937 cells [4]): 10.4%
% binding at 1000 ng/ml (CLL-1 on U937 cells [4]): 35.7%
% binding at 3000 ng/ml (CLL-1 on U937 cells [4]): 71%
binding result [2]: binds
% of This Plot (R3 PE+) (CLL-1 on U937 cells [5]): 88.6%
Mean FL2-A (R3 gate) (CLL-1 on U937 cells [5]): 6730
EC50 (CLL-1 on U937 cells [6]): 1.37 µg/mL

B5: VHH clone 2A8 (VHH)
VHH: QVQLQAFGGGMVQAGESLRLSCVASGNDISGSAMAWYRAHLGAERELVAVDAPRERPFYIDPVIGRFTISRDDRNKMLYLQMNDLRPDDTATYWCGPSLRTFHGREWYRPPWFTSWGQGTQVTVSS
notes: Includes myc and His tags
% FACS positive (CLL-1 on U937 cells [1]): 40.1%

B6: VHH clone 1B11 (VHH)
VHH: AVQLQESGGGLVQAGGSLRLSCAASGSDRSINVMNWYRQAPGKQRELVAAITSGGTTNYAQSVKGRVTISRDSAKNTVYLQMNSLKPEDTAVYFCKADTRWGGMYWGPGTQVTVSS
notes: Includes myc and His tags
% FACS positive (CLL-1 on U937 cells [1]): 77.8%

Now from value to binder:

% FACS positive (CLL-1 on U937 cells [1]): 59.7%
B1: VHH clone 2G10 (VHH)
VHH: QVQLQQSGGGLVQAGGSLRLSCAASGSIFSINAMGWYRQAPGKRREMVAVVSRFGETTYTGSVKGRFTISRINRNNTVFLQMNRLKPEDTAVYYCNARIRGNYGSRIDYWGQGTQVTVSS
notes: Includes myc and His tags

binding result [2]: binds
B7: VHH clone 1B1 (VHH)
VHH: QVQLQESGGGLVQAGGSLRLSCAASGSIFAINEINLMGWYRQAPGKQRELVAACASDGNTYYADSVKGRFTISRDNAEKTVYLQMNNLKPDDTAVYYCDANSRGNYYSGQGTQVTVSS
notes: also called 2A6; 2A10
